B1: Protein TIFY 10A (Arabidopsis thaliana (Mouse-ear cress)), Q9LMA8 (parent)
chain: MSSSMECSEFVGSRRFTGKKPSFSQTCSRLSQYLKENGSFGDLSLGMACKPDVNGTLGNSRQPTTTMSLFPCEASNMDSMVQDVKPTNLFPRQPSFSSSSSSLPKEDVLKMTQTTRSVKPESQTAPLTIFYAGQVIVFNDFSAEKAKEVINLASKGTANSLAKNQTDIRSNIATIANQVPHPRKTTTQEPIQSSPTPLTELPIARRASLHRFLEKRKDRVTSKAPYQLCDPAKASSNPQTTGNMSWLGLAAEI
partner: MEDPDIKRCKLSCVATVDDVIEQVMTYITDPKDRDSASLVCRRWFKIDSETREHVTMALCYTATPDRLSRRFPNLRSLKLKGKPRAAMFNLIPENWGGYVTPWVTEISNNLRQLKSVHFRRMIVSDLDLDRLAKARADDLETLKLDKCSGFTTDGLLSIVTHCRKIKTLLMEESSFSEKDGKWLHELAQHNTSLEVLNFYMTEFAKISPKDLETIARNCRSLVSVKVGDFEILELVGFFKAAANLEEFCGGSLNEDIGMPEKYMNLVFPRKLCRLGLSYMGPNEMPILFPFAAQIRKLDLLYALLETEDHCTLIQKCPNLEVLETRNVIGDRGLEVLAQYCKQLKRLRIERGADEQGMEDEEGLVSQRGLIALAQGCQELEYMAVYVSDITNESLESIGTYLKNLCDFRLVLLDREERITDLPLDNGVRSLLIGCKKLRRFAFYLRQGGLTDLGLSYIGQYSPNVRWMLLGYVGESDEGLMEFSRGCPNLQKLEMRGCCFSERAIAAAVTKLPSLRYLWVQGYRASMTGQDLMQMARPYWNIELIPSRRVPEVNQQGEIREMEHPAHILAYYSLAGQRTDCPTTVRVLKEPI
B2: Protein TIFY 7 (Arabidopsis thaliana (Mouse-ear cress)), Q8W4J8 (parent)
chain: MERDFLGLSDKQYLSNNVKHEVNDDAVEERGLSTKAAREWGKSKVFATSSFMPSSDFQEAKAFPGAYQWGSVSAANVFRRCQFGGAFQNATPLLLGGSVPLPTHPSLVPRVASSGSSPQLTIFYGGTISVFNDISPDKAQAIMLCAGNGLKGETGDSKPVREAERMYGKQIHNTAATSSSSATHTDNFSRCRDTPVAATNAMSMIESFNAAPRNMIPSVPQARKASLARFLEKRKERLMSAMPYKKMLLDLSTGESSGMNYSSTSPT
partner: B1 partner

Variants of: B1
Details: with coi1_arath COI1, O04197

Row | effect of a mutation on the interaction | Variant
1 | disrupting interaction | MSSSMECSEFVGSRRFTGKKPSFSQTCSRLSQYLKENGSFGDLSLGMACKPDVNGTLGNSRQPTTTMSLFPCEASNMDSMVQDVKPTNLFPRQPSFSSSSSSLPKEDVLKMTQTTRSVKPESQTAPLTIFYAGQVIVFNDFSAEKAKEVINLASKGTANSLAKNQTDIRSNIATIANQVPHPRKTTTQEPIQSSPTPLTELPIAARASLHRFLEKRKDRVTSKAPYQLCDPAKASSNPQTTGNMSWLGLAAEI [R205A]
2 | disrupting interaction | MSSSMECSEFVGSRRFTGKKPSFSQTCSRLSQYLKENGSFGDLSLGMACKPDVNGTLGNSRQPTTTMSLFPCEASNMDSMVQDVKPTNLFPRQPSFSSSSSSLPKEDVLKMTQTTRSVKPESQTAPLTIFYAGQVIVFNDFSAEKAKEVINLASKGTANSLAKNQTDIRSNIATIANQVPHPRKTTTQEPIQSSPTPLTELPIARAASLHRFLEKRKDRVTSKAPYQLCDPAKASSNPQTTGNMSWLGLAAEI [R206A]
3 | disrupting interaction | MSSSMECSEFVGSRRFTGKKPSFSQTCSRLSQYLKENGSFGDLSLGMACKPDVNGTLGNSRQPTTTMSLFPCEASNMDSMVQDVKPTNLFPRQPSFSSSSSSLPKEDVLKMTQTTRSVKPESQTAPLTIFYAGQVIVFNDFSAEKAKEVINLASKGTANSLAKNQTDIRSNIATIANQVPHPRKTTTQEPIQSSPTPLTELPIAAAASLHRFLEKRKDRVTSKAPYQLCDPAKASSNPQTTGNMSWLGLAAEI [R205A;R206A]

Variants of: B2
Details: with coi1_arath COI1, O04197

Row | effect of a mutation on the interaction | Variant
4 | disrupting interaction | MERDFLGLSDKQYLSNNVKHEVNDDAVEERGLSTKAAREWGKSKVFATSSFMPSSDFQEAKAFPGAYQWGSVSAANVFRRCQFGGAFQNATPLLLGGSVPLPTHPSLVPRVASSGSSPQLTIFYGGTISVFNDISPDKAQAIMLCAGNGLKGETGDSKPVREAERMYGKQIHNTAATSSSSATHTDNFSRCRDTPVAATNAMSMIESFNAAPRNMIPSVPQARAASLARFLEKRKERLMSAMPYKKMLLDLSTGESSGMNYSSTSPT [K224A]
5 | disrupting interaction | MERDFLGLSDKQYLSNNVKHEVNDDAVEERGLSTKAAREWGKSKVFATSSFMPSSDFQEAKAFPGAYQWGSVSAANVFRRCQFGGAFQNATPLLLGGSVPLPTHPSLVPRVASSGSSPQLTIFYGGTISVFNDISPDKAQAIMLCAGNGLKGETGDSKPVREAERMYGKQIHNTAATSSSSATHTDNFSRCRDTPVAATNAMSMIESFNAAPRNMIPSVPQAAAASLARFLEKRKERLMSAMPYKKMLLDLSTGESSGMNYSSTSPT [R223A;K224A]
6 | disrupting interaction | MERDFLGLSDKQYLSNNVKHEVNDDAVEERGLSTKAAREWGKSKVFATSSFMPSSDFQEAKAFPGAYQWGSVSAANVFRRCQFGGAFQNATPLLLGGSVPLPTHPSLVPRVASSGSSPQLTIFYGGTISVFNDISPDKAQAIMLCAGNGLKGETGDSKPVREAERMYGKQIHNTAATSSSSATHTDNFSRCRDTPVAATNAMSMIESFNAAPRNMIPSVPQAAKASLARFLEKRKERLMSAMPYKKMLLDLSTGESSGMNYSSTSPT [R223A]

— IntAct's records for PubMed 18547396
